Experimental data as given in PMC11377762.

Target: human wild-type D3R (HASS-FLAG-EGFP-3C protease-D3R in pcDNA4/TO) (human) (UniProt P35462)
Sequence of UniProt P35462 (P35462 whole entry): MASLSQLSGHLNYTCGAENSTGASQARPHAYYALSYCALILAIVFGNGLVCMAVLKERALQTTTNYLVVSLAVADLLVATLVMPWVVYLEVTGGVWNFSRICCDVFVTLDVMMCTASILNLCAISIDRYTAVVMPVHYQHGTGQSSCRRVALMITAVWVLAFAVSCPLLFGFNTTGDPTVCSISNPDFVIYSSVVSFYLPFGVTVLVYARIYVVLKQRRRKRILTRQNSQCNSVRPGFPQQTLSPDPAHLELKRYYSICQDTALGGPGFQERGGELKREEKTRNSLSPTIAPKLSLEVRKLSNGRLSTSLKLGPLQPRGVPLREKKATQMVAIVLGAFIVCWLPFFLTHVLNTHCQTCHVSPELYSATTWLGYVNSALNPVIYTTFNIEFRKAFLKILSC

potency of FOB02-04A at D3R in the TRUPATH BRET2 assay in HEK293T cells, GOA against Gi1: 135 fold
Substance: GαOA-RLuc8 (from UniProt P09471 1-354) (natural protein)
